Source: PMC2731490 (Nature, 2009)

Experiments:
[1] = target: T1, pol V Mut (UmuD′2C–RecA), wild-type RecA (Escherichia coli, UniProt P0A7G6); assay: hairpin primer/template extension, […]-labelled DNA; assay type: biochemical; settings: nucleotide added after activation; RecA* absent; hydrolysis not needed
T1 sequence (P0A7G6 2-353): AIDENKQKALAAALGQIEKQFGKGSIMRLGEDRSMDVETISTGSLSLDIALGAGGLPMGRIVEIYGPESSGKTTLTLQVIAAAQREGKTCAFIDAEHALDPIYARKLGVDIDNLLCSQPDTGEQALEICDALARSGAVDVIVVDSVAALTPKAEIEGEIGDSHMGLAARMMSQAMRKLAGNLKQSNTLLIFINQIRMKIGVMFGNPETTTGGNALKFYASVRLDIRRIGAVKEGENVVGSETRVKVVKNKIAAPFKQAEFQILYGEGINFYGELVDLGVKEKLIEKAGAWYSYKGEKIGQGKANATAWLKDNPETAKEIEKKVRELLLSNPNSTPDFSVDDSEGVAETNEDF
T1 sequence (P04152 1-422 partner): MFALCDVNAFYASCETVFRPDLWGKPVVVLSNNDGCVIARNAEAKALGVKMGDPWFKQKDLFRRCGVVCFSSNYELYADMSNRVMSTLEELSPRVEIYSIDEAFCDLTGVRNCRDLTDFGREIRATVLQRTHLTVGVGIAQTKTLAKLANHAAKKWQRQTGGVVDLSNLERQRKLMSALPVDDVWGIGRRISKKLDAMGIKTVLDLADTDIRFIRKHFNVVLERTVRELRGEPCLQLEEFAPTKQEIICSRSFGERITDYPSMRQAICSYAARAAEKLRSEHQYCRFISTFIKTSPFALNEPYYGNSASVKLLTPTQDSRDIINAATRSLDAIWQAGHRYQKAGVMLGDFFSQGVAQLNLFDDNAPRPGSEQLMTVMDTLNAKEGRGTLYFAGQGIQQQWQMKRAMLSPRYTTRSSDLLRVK
T1 sequence (P0AG11 25-139 partner limits assumed): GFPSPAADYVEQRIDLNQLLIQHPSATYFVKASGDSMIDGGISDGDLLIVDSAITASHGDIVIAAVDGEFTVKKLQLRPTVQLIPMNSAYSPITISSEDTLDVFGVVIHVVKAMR

[2] = target: T2, DNA polymerase V (UmuD′2C) (E. coli, UniProt P04152 1-422; P0AG11 25-139)
T2 sequence (looked up) 1: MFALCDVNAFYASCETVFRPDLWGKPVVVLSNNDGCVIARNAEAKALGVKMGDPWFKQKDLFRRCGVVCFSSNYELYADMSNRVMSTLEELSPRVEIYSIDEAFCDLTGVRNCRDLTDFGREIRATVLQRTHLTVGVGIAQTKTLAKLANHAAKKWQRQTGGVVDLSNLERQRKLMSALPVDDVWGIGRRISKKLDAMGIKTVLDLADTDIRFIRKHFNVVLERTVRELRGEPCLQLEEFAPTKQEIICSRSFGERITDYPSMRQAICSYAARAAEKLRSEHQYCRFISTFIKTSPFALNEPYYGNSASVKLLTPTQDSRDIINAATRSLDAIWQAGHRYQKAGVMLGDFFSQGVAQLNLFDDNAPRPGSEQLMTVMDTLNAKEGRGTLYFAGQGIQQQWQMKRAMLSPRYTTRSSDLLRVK
T2 sequence (looked up) 2: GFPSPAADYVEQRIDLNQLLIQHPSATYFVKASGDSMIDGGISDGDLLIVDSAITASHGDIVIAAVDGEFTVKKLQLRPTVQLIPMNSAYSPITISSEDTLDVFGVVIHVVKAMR

UmuC = target: T3, UmuC (E. coli, UniProt P04152 1-422); assay: SEC-MALS
T3 sequence (looked up): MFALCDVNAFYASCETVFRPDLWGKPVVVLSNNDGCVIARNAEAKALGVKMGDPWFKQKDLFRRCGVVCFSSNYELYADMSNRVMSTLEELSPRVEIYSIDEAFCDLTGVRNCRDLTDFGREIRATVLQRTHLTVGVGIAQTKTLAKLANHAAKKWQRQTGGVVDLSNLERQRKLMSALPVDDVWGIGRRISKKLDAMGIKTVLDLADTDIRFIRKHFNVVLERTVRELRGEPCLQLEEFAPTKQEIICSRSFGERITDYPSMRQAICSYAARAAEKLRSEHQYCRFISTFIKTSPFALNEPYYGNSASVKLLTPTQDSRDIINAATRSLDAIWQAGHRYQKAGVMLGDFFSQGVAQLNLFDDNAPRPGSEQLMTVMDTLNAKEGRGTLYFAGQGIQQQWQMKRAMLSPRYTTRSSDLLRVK

Q: How did the “hairpin primer/template extension, 32P-labelled DNA” value [1] turn out when `Nc1ncnc2c1ncn2[C@@H]1O[C@H](COP(=O)(O)OP(=O)(O)OP(=O)(O)O)[C@@H](O)[C@H]1O` [ATP] was run?
A: pol V Mut activated with wild-type RecA* is inactive in the absence of added ATP or ATPγS

B1: wild-type RecA (natural protein, E. coli, UniProt P0A7G6 1-353, looked up)
chain: MAIDENKQKALAAALGQIEKQFGKGSIMRLGEDRSMDVETISTGSLSLDIALGAGGLPMGRIVEIYGPESSGKTTLTLQVIAAAQREGKTCAFIDAEHALDPIYARKLGVDIDNLLCSQPDTGEQALEICDALARSGAVDVIVVDSVAALTPKAEIEGEIGDSHMGLAARMMSQAMRKLAGNLKQSNTLLIFINQIRMKIGVMFGNPETTTGGNALKFYASVRLDIRRIGAVKEGENVVGSETRVKVVKNKIAAPFKQAEFQILYGEGINFYGELVDLGVKEKLIEKAGAWYSYKGEKIGQGKANATAWLKDNPETAKEIEKKVRELLLSNPNSTPDFSVDDSEGVAETNEDF
Q: Which “stoichiometry N” value [2] does the source give for B1 here?
A: 1 RecA per UmuC per UmuD′2

B2: UmuD′ (natural protein, E. coli, UniProt P0AG11 25-139, looked up)
chain: GFPSPAADYVEQRIDLNQLLIQHPSATYFVKASGDSMIDGGISDGDLLIVDSAITASHGDIVIAAVDGEFTVKKLQLRPTVQLIPMNSAYSPITISSEDTLDVFGVVIHVVKAMR
Q: Does B2 bind (UmuC)?
A: binds
